Data taken from US20080166749A1, “Fluorescent Protein Sensors of Post-Translational Modifications” (INVITROGEN CORPORATION, priority 1998, published 2008).
Where no end group is shown, it is not given here.

What was measured:
Type in all cases: biochemical
[1] = biological target: PKA (Mus musculus, UniProt P05132); assay: GFP mutant K8 quenching assay with protein kinase A inhibitors; details: 1 mM versus 0.1 mM ATP
Method: The protein kinase A inhibitors PKI (protein kinase A heat-stable inhibitor, isoform alpha (Calbiochem #539488) and H-89 (N-[2-((p-bromocinnamyl)amino)ethyl]-5-isoquinoline sulfonamide, HCl) (Calbiochem #371963) were tested in the preferred assay condition to determine if they could be detected using the GFP mutant K8 quenching assay. Both compounds were tested individually (between 0.1 and 1,000 nM) and pre-incubated with PKA in the absence of mutant K8 for 10 minutes at 4° C. Then, GFP mutant K8 was added to a final concentration of 4 μM and the mixtures were incubated for thirty minutes at 30° C. The kinase reactions were terminated by the addition of the preferred acetate quenching conditions (100 mM acetate, 100 mM NaCl, pH 5.0, 25 mM beta-glycerol phosphate). The fluorescence of these samples was measured 14 to 16 hours later. The results of these studies establish that the GFP mutant K8 quenching assay can be used to detect kinase inhibitors and further validates the methodology for drug screening.
The protein kinase A inhibitor H-89 was tested in the GFP mutant K8 kinase assay at two different ATP concentrations (0.1 mM and 1 mM). […] Because the GFP kinase assay can be performed at both high and low ATP concentrations, this method can be used to identify, measure, and detect ATP antagonists. […]

[2] = biological target: PKC alpha (Homo sapiens, UniProt P17252); assay: Rate of phosphorylation of GFP PKC substrates, ^32P incorporation; details: 5 micromolar GFP mutant, 0.2 μg PKC isoform, 30 minutes at 30° C.
Method: (§1) The rates of phosphorylation of GFP having PKC motifs were determined by measuring ^32P incorporation in the presence of different PKC isoforms (Table XIII). These examples include one example where a membrane association motif is part of the GFP mutant.
(§2) These experiments were performed by incubating the indicated GFP mutant (5 micromolar) with the indicated PKC isoform (0.2 μg) for 30 minutes at 30° C. in 25 mM TRIS pH 7.5, 1 mM DTT, 10 mM MgCl2 0.1 mM ATP 20 μg/ml phosphatidylserine, 10 μM OAG, 200 μM CaCl2 (for PKCα) and 1 mM EGTA (for PKCs ε and ζ). […] The relative specificities identified for the GFP substrates in this experiment broadly matched those identified by Nishikawa et al (1997) who used non-GFP peptides to selectively measure PCK isoform activity. […] Membrane association motif poly-Lys (hepta-Lys) was added to the C-terminus of GFP mutant K8 with PKC alpha phosphorylation motif at the N-terminus.

[3] = biological target: T1, PKC ε (Homo sapiens, UniProt Q02156); assay: as above; details: 5 micromolar GFP mutant, 0.2 μg PKC isoform, 30 minutes at 30° C.
T1 sequence (Q02156 1-737): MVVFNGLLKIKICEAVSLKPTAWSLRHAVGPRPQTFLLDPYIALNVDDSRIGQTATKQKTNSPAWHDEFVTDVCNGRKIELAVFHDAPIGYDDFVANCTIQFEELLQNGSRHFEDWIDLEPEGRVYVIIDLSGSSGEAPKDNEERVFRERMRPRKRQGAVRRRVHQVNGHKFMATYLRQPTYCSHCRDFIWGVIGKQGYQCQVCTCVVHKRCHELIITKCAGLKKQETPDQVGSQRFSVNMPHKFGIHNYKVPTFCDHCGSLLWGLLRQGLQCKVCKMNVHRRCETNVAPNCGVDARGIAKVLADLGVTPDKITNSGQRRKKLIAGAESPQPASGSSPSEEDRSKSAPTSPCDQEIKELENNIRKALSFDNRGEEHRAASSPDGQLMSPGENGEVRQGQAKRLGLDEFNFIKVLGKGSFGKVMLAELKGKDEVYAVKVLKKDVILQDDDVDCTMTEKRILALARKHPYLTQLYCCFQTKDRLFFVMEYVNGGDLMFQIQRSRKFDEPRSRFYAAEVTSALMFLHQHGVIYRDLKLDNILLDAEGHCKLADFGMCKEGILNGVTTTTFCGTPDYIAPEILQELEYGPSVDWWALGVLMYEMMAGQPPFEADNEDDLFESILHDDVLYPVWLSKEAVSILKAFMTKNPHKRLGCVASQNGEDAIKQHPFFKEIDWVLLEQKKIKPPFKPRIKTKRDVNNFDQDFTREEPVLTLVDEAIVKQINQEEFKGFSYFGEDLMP
Method: as §1, §2

[4] = biological target: T2, PKC ζ (Homo sapiens, UniProt Q05513); assay: as above; details: 5 micromolar GFP mutant, 0.2 μg PKC isoform, 30 minutes at 30° C.
T2 sequence (Q05513 1-592): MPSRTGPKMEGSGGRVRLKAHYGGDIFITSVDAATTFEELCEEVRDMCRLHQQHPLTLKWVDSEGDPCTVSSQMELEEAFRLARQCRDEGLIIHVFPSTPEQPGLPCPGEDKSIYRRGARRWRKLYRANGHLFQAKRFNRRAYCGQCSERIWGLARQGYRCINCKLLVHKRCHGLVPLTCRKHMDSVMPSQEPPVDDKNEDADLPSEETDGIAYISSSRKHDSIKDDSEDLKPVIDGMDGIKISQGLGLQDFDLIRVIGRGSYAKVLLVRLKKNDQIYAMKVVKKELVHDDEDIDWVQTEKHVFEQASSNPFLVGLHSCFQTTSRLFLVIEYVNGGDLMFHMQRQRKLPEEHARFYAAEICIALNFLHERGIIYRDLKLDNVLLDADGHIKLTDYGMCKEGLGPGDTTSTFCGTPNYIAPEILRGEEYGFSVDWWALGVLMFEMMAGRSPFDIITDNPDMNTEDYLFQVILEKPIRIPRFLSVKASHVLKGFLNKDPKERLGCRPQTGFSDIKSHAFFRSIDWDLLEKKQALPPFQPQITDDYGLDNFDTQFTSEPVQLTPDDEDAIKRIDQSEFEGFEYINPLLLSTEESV
Method: as §1, §2

Compound	inhibition of kinase activity at the higher ATP concentration [1]	Kinase and Activity (CPM), PKC alpha [2]	Kinase and Activity (CPM), PKC ε [3]	Kinase and Activity (CPM), PKC ζ [4]
Cl.O=S(=O)(NCCNCC=Cc1ccc(Br)cc1)c1cccc2cnccc12 [H-89, N-[2-((p-bromocinnamyl)amino)ethyl]-5-isoquinoline sulfonamide, HCl]	much less efficient at inhibiting kinase activity			
Pkc 7: GFP mutant K8 with PKC ζ motif Arg Arg Phe Lys Arg GIn Gly Ser Phe Phe (RRFKRQGSFF; not fully specified; printed as Arg Arg Phe Lys Arg GIn Gly Ser Phe Phe)		4,745 CPM	12,688 CPM	8,421 CPM
Pkc 8: GFP mutant K8 with PKC μ motif Ala Ala Leu Val Arg GIn Met Ser Val Ala (AALVRQMSVA; not fully specified; printed as Ala Ala Leu Val Arg GIn Met Ser Val Ala)		5.230 CPM	20,259 CPM	14,606 CPM
